This test addresses human C5a receptor (human) (UniProt P21730). The experiment in a line: cell-based or functional assay.

The values that follow come from US20210163946A1.

Chain of human C5a receptor (human) (P21730 whole entry): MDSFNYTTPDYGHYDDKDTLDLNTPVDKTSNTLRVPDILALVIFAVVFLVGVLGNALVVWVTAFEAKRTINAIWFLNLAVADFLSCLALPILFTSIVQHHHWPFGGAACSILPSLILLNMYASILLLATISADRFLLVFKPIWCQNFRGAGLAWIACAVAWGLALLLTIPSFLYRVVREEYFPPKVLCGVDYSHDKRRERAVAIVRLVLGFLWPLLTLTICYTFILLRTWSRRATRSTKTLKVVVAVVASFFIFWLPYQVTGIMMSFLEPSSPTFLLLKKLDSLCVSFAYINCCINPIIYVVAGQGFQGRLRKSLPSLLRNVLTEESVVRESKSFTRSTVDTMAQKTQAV

Turning to “mouse C5a (from UniProt P06684 679-755) (ligand)”, the half-maximal effective concentration (EC50) of chemotaxis of BA/F3/huC5aR cells stood at 0.3 nM.

Take “recombinant human C5a (from UniProt P01031 678-751) (ligand)”: the half-maximal effective concentration (EC50) of chemotaxis of BA/F3/huC5aR cells is 0.1 nM.
